± gives the standard deviation of the averaged measurements.
Tested on: Saccharomyces cerevisiae
Assay: protein stability index of tFT-peptide fusion (C-terminal peptide) (PSI (0-1 scale)); higher = more stable (slower turnover)
Conditions: genetic background: wild type; temperature: 30 C
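Further: PSI is a weighted mean of sequencing reads over stability bins, variants kept only with over 10 reads, mCherry proximal and sfGFP distal, peptide attached via GGGS linker.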

| Sequence | protein stability index |
| --- | --- |
| PRSAPSPRRSPA | 0.757 ± 0.034 |
| PRSFPPRPPPPV | 0.726 ± 0.051 |
| PRSLPAGHPSRG | 0.692 ± 0.028 |
| PRSMLIFPSFPF | 0.825 ± 0.042 |
| PRSPPPPPPLPP | 0.626 ± 0.019 |
| PRSPPTPPPAPP | 0.66 ± 0.013 |
| PRSYPPSPPPPS | 0.704 ± 0.042 |
| PRTHPPPPAPCR | 0.6634 ± 0.0054 |
| PRTPRPPSPPAS | 0.739 ± 0.015 |
| PRTRSYTRCGVT | 0.614 ± 0.024 |
| PRYCQIKIISHK | 0.554 ± 0.14 |
| PRYPLLPAHTLI | 0.705 ± 0.029 |
| PSAFPAPPLRCS | 0.686 ± 0.027 |
| PSAPPPPPPSPP | 0.5979 ± 0.005 |
| PSCLGSIRSTPL | 0.657 ± 0.02 |
| PSDPTPSVPPIV | 0.6647 ± 0.001 |
| PSFPPLLSSSSI | 0.763 ± 0.11 |
| PSFVPHLPRPPP | 0.722 ± 0.071 |
| PSHFSPPSAPPP | 0.738 ± 0.055 |
| PSIHCLSATQTW | 0.672 ± 0.068 |
| PSIPPPSPSPPA | 0.717 ± 0.027 |
| PSLHSPPPPPPR | 0.703 ± 0.053 |
| PSLLSFPFVSLP | 0.696 ± 0.05 |
| PSLPPLPRSPPP | 0.714 ± 0.04 |
| PSLPPPPHSAFC | 0.698 ± 0.073 |
| PSLPPPPPPPSP | 0.614 ± 0.082 |

| Sequence | protein stability index |
| --- | --- |
| PSLPPPPPTPPT | 0.688 ± 0.047 |
| PSLPVPPTLCPI | 0.675 ± 0.062 |
| PSLSPPVHALLF | 0.722 ± 0.013 |
| PSLSVPERSPSL | 0.7 ± 0.041 |
| PSPFPPPSHPSP | 0.695 ± 0.0041 |
| PSPHAITSHFRP | 0.723 ± 0.04 |
| PSPHRELNESHE | 0.674 ± 0.045 |
| PSPHSPPSFLPL | 0.729 ± 0.024 |
| PSPLRLPPPSVP | 0.712 ± 0.013 |
| PSPMVPHVPMST | 0.74579 ± 0.00057 |
| PSPPLLTPLPPC | 0.675 ± 0.022 |
| PSPPPGPPPLPP | 0.613 ± 0.011 |
| PSPPPHPGGTRR | 0.652 ± 0.057 |
| PSPPPHPIHPMA | 0.754 ± 0.18 |
| PSPPPHSAPPLP | 0.732 ± 0.025 |
| PSPPPLLPRPHL | 0.714 ± 0.1 |
| PSPPPPAPPPPP | 0.666 ± 0.013 |
| PSPPPPPLPPAG | 0.663 ± 0.097 |
| PSPPPPSALLSP | 0.727 ± 0.066 |
| PSPPPPSLPPPP | 0.67 ± 0.15 |
| PSPPPRPPLSPP | 0.715 ± 0.052 |
| PSPPPVRPRHHH | 0.597 ± 0.069 |
| PSPPSLPSCYAT | 0.717 ± 0.029 |
| PSPPTPSPPPPP | 0.712 ± 0.062 |
| PSPRPAPPPPPP | 0.707 ± 0.054 |
| PSPSAFLPCRLD | 0.791 ± 0.094 |

| Sequence | protein stability index |
| --- | --- |
| PSPSPPRSPALS | 0.713 ± 0.056 |
| PSPVLLLPPPSL | 0.745 ± 0.059 |
| PSPWPPPPSDPP | 0.552 ± 0.12 |
| PSQRRTPPGLFK | 0.656 ± 0.059 |
| PSRRILFSAALL | 0.764 ± 0.28 |
| PSRYHPLPPPTP | 0.711 ± 0.084 |
| PSSDVLLFALSF | 0.6486 ± 0.0049 |
| PSSPLFLPPPPP | 0.696 ± 0.023 |
| PSSPPPPPLPPC | 0.649 ± 0.058 |
| PSSPSTRPRFPL | 0.68 ± 0.083 |
| PSSRPPMSPIDT | 0.694 ± 0.018 |
| PSSSSPPPTFSL | 0.625 ± 0.066 |
| PSSSSPPSLTPA | 0.672 ± 0.097 |
| PSTLPSHRVPLK | 0.68 ± 0.041 |
| PSTPRPPRPPPL | 0.695 ± 0.027 |
| PSTRVPATTHTL | 0.6983 ± 0.00091 |
| PSVPPSPPAPPT | 0.687 ± 0.032 |
| PSVPSPPPPSPP | 0.683 ± 0.024 |
| PSWPRRSSPLAI | 0.73 ± 0.013 |
| PSWVFRCAPSPF | 0.505 ± 0.084 |
| PSYPTAPHHSAA | 0.704 ± 0.043 |
| PTARGACRAPRS | 0.667 ± 0.037 |
| PTGSGLTLNRVL | 0.7187 ± 0.0062 |
| PTHPSRLRLFSA | 0.612 ± 0.024 |
| PTLAFIPIPTLF | 0.6051 ± 0.004 |
| PTLCLPESSGRL | 0.705 ± 0.028 |

| Sequence | protein stability index |
| --- | --- |
| PTLWRSSVRHVW | 0.714 ± 0.066 |
| PTPCCFPHPPPT | 0.709 ± 0.02 |
| PTPFVPSPPCRA | 0.664 ± 0.041 |
| PTPGSSPLPATL | 0.687 ± 0.0075 |
| PTPPHPSHPTAP | 0.665 ± 0.023 |
| PTPPPLTPPPCF | 0.678 ± 0.014 |
| PTPSPPLPPITP | 0.773 ± 0.024 |
| PTPTGPGSTSPP | 0.662 ± 0.046 |
| PTQSPSTIPPSP | 0.763 ± 0.11 |
| PTRPPPTSHTPY | 0.685 ± 0.02 |
| PTRPSHTALPSA | 0.664 ± 0.023 |
| PTRRQEVPPEPT | 0.636 ± 0.058 |
| PTSPTTSPDHKH | 0.684 ± 0.15 |
| PTTAPPPRSAGA | 0.764 ± 0.051 |
| PTTFLSPPSPPS | 0.71 ± 0.011 |
| PTTPPPSVPPLY | 0.715 ± 0.042 |
| PTVPLSSVVRDA | 0.746 ± 0.051 |
| PVAGMSNTPLYG | 0.685 ± 0.11 |
| PVAPPQLSPPSS | 0.6704 ± 0.0048 |
| PVCASVSLTSSP | 0.697 ± 0.024 |
| PVGEGAGELGGG | 0.642 ± 0.034 |
| PVGGAGCVRGGV | 0.749 ± 0.19 |
| PVILPPLAPFLS | 0.629 ± 0.019 |

From the supplement of paper PMC10724198
